The text below walks through data of the supplement of paper PMC11502859.
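Further: lentiviral eGFP-IRES-mCherry reporter pool sorted by FACS 96 h post-transduction, gated on mCherry-high cells, Illumina read counts normalized per million, median across four biological replicates.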

The data set deals with HEK293T. Put plainly: median enrichment of reporter reads in eGFP-reduced (low/intermediate) vs eGFP-high sorted cells (eGFP-extension fusion abundance) (ratio); higher = stronger loss of eGFP-fusion protein abundance (more destabilising extension).
Regarding “SVHQLPAPALAPTPSSLKHPPAHCGQLCATRAHGAPPVL [BAIAP3]”, the median enrichment was found to be 1.3. The result for “SVIPGLSTPASPPAAGTALTLLSDPHSFPEMLRMFISPAPDPMSPGLRVCFPHIGLTVSL [KLK5]” reads 12.1; that for SVLPAHLGLVLALPRPL [LRSAM1], 14.6; that for SVLPSVTSNSGKRKLK [STARD13], 0.451. The result for SVPLSHPYL [KLK2] reads 0.37; that for “SVPRPCQPCCTGCRHCTRCEGSTPAQAEFLGSTSPAAWGTGIAHSVNGSTPAWAESLGSDLAAWGESLGSVLAAWGAGIAQSM [WNT9A]”, 7.93. Regarding SVQMMWEFVGFLFFFFFDT [ZNF80], the median enrichment came to 7.98. Take SVRLDWGGWHCVGGQLSI [ACTL10]: the median enrichment is 13.7. With SVS [PACSIN3], the median enrichment amounted to 0.33.

Turning to SVSGNHEGIWQ [MOAP1], the median enrichment was determined as 0.522. The result for SVVPLFH [KIF22] reads 0.762; that for “SVWAGLFNMVFAVLPPWGPWSDNIVSLVRLSRCLIRTANGASPTPPRVRPPFHQRVSSQRPPASCPAAQEEKEGLNSIAIFFP [PDGFB]”, 7.44; that for SVWGLAPCSPGPHCSHTLRLGPPSLLWC [TOM1], 8.98. In the case of SWHSSPHTCSQAQMEVP [ACTL6B], the median enrichment turned out to be 0.404. The result for SWPPASASSYLLPGSPPRRPPYRERGFTR [OGG1] reads 6.11; that for “SWPPPFPPPAPSPSPTRQLIPGLLSDPFSRGTSGQCPTTHTHHHLTGSSLISDNPHPHCFWGSLSHLSHPVSCLCLSWCLSGL [CCDC97]”, 5.65.

As for SWRRPMCIFF [FRAS1], the median enrichment was 9.68. “SWTGLFLTSDLSQCLFCPGSDFPVVLPPFRIKGLIVYPEFTSFGVYI [COBL]”: the median enrichment was found to be 13. With SWTVPICREA [RWDD1], the median enrichment stood at 6.01.

In the case of SWVCAQPFKAAGSTT [TRIM45], the median enrichment worked out at 4.99. Turning to SYCSMDIK [KDM6A], the median enrichment is 1.22. On to “SYEQNKTLRKINRQGSDLFLKNLRSVDSQED [PRKACB]”, for which the median enrichment turned out to be 2.01. The figure for SYFRLESKTS [PIK3CG] is 1.99; for SYGTLAPRHEARWPVFLNLKCKILLFPGPRRV [ICOS] it is 11. SYKPA [WDR97]: the median enrichment is 0.947. In the case of SYKQRTSSILRKEML [MEOX2], the median enrichment amounted to 5.43.

In the case of SYKSIVSDWTITSFNNVSNNVLY [FAM135A], the median enrichment is 30.6. The result for SYLQCPCCVALQMRPLQTRPA [WDCP] reads 8.46; that for “TAPALELGARAAELVFGPQRRIQNQKLKSDVRWAPAPSAESRQGEAGWSQAPSHAAPKSWTHLWGAPHLHLRPHISPLPFLYV [MYO9B]”, 5.92; that for “TIRLWDTYQSEPDGFSHFHLYVCAAFLVRWRKEILEEKDFQELLLFLQNLPTAHWDDEDISLLLAEAYRLKFAFADAPNHYKK [TBC1D22A]”, 4.42. As for “TLTMPRPHPVQHSQSSHLHPRTVGAGRHFPLEHVLRSITLGPTARLSLPPGSCMRSPDQLDHHFAQPLNTMHQASISQFPLAF [SCARA5]”, the median enrichment was determined as 3.72.

For the substance TMEPPGGRQKKR [Degron FEM1C], the median enrichment is 0.496. The figure for TMNNEEDLLRSL [Degron FEM1C] is 0.347; for “TPAPGLGRELTRTGCSQKAGPSLSPKPLLDLWRSCRLDREAVPLSSPSPSRASPWSFRSSFWGLFQVRRMEEGGQATQHPPTP [FOXN4]” it is 5.36; for “TQWAPCTPVSGAVRLGYIVNSASTERLALRASSESSSSGTPPKPTPPGTPLSGIPAKRRTLSRSRPPHPQSVAPPTEQPRFGP [PRRT1]” it is 0.999. The figure for TSLYKKVGMGRK [Degron APPBP2] is 14.1; for “TTMERWAVAMVDGLPGWAFELALGTTRLSLSSHGTQKCAAMLPRVLSPHLSQPSWRPGLSLQPLGPALIAGGQALDLEGLAHP [ADGRG1]” it is 5.12; for TTT [Thr03] it is 0.568. Take TTTT [Thr04]: the median enrichment came to 0.324. With TTTTT [Thr05], the median enrichment was found to be 0.336. In the case of TTTTTT [Thr06], the median enrichment was determined as 0.322. For TTTTTTT [Thr07], the median enrichment came out at 0.319. On to TTTTTTTT [Thr08], for which the median enrichment was 0.414. As to TTTTTTTTT [Thr09], the median enrichment is 0.552. Regarding TTTTTTTTTT [Thr10], the median enrichment came to 0.379. The result for “VAANTPASGLLVAAPGDTPAKPTRWRGPPWSLATLPASAQGPLPSPGHLLCRRHSSQKPLSQKRLVFKKSRFFAPEVSFRGRM [AP1M1]” reads 4.38. The figure for “VGIRAAPSGAGTAGTAAILLLLVFFLLSKINCGNILVSCDVRCSFVVKFAIDIEIMTSVFPEIKHVSTQDFLDHSRKCQTFSQ [KISS1R]” is 7.04. As to VGTMAAGRAPGK [Degron APPBP2], the median enrichment was 6. For the substance VSGIMRRPWGMN [Degron APPBP2], the median enrichment worked out at 10.2. The result for “VSHAYAHAQPPSGSLESRADTHSHTHCLAKNTPCLPCHSPHSHSLSPDPCLSLDCRGTTHLFGIQGPQPTVPSPINCSRAPHK [FOXP3]” reads 2.58; that for “VSSFLLVFFILFSFHQPSCILALQRDRDRSSAQGFSLPLFIMGGGYHPPSQSCEESGTSFFPTSLFPHSFLSPSGLSFPYTLT [NOTCH3]”, 5.94.

As for “VVRASPYLLLSPCEEDPDLASFPRRGWGVPRVPVLEGPPSPSLITVLFSAPPSAARLQHQGEADAEPHRWESCLWKGAFCYNL [ZNF646]”, the median enrichment amounted to 3.51. Turning to VVV [Val03], the median enrichment came to 0.518. VVVV [Val04]: the median enrichment was determined as 1.54.

Take VVVVV [Val05]: the median enrichment turned out to be 10.3. With VVVVVV [Val06], the median enrichment came out at 5.06. The figure for VVVVVVV [Val07] is 7.67; for VVVVVVVV [Val08] it is 10.5. For the substance VVVVVVVVV [Val09], the median enrichment came out at 8.21. The figure for “WAAAARPSGTPASPGGALGQVPSGRTTPGPQGPRPAATLVVAASRSAFGRPLGVAGAARRVQVEVPVPGPQRA [B3GALT6]” is 8.24; for “WAAPPGRWGAPLNDSVILKRWLGSWEKPSGCPLGNLHIISVLLVMSRWRGHRCAVSCSRNY [C19orf12]” it is 22. On to WACYFHGVCQ [OR5D18], for which the median enrichment was found to be 4.25. The figure for “WADPGYVPYPRGLSIDRDYIITWLEVKGSIQVLHLVLPCLLSDHSDGLMWLLMWNCRRVQRRVCNKAIGKHTGAFPSPSGPRP [HS3ST3B1]” is 4.31.

For the substance “WADPVGIRAAPSGAGTAGTAAILLLLVFFLLSKINCGNILVSCDVRCSFVVKFAIDIEIMTSVFPEIKHVSTQDFLDHSRKCQ [KISS1R]”, the median enrichment worked out at 10.9. The figure for WAGLRGMVRTSPP [NANS] is 6.83; for WALGLKSQLFLSCSV [DIRAS3] it is 35.7. The result for WALHPARS [IQCD] reads 0.961; that for “WAPGTAPHCQLPLLGGPGRRVPPSPCQGPGDPLPGCLRLLLRRGNAKKEKEKPRARPLPPAVHCAASSVPGLTVPLSSAPARQ [NRXN2]”, 6.68. Regarding “WAPLPPTPYQLQSGGFHAQMALGVTSSFACGP [TPGS2]”, the median enrichment was 10.1. The result for “WAPSCLSRDPGTPPARTLGLSLPRAPPASVDWRVVLPLPRNQPQPR [SLC9A3R2]” reads 18.7; that for “WARGHARAVQSWPGPPVGLLCSLPSLPPDAGPCCSLRTIRSSCSCHPHLETCLCAHLKMGSVPVLKCPVAAPVVEDQGLRFGT [FRMD8]”, 5.56. The figure for WARRASQRSGQAVRPWPSVC [INMT] is 9.99. Take “WARSAVSSQWILVNWWRLADTLEKPKPESLLFSLFSCLCSVSLNTTFSAMVCG [MRFAP1]”: the median enrichment came to 5.48. For the substance WARSTGPDEWIFTTFTRL [CD8B], the median enrichment was 7.72. The result for “WARTLNRTPVGPARTACSAGDGSDPWSSIAPHDIESRPVFALWEENGRESGQLSQSIRAGRT [ABCC6]” reads 7.78; that for “WARTSPGTAGGPPPPPSHSVTPGPSGAGWRPRSPLLRSPRS [NPB]”, 3.31; that for WARVVARPCTTAIANQSPKAKFTCCSHPQ [MAGEB2], 8.12.

With “WASSPPAHVMKQRFGLVAHCLWPPSPAQPQASQPQTLESPTTMERWAVAMVDGLPGWAFELALGTTRLSLSSHGTQKCAAMLP [ADGRG1]”, the median enrichment stood at 5.77.

WATLRSVFPLPPSPHVRRPPPRCSRGS [C19orf57]: the median enrichment worked out at 15.9. Turning to WATLSVGFFLEDSTLLPHVLSQLQS [CSTF1], the median enrichment is 4.6.

Consider WAV [GBA2], for which the median enrichment amounted to 0.997.

On to “WAVSLTCPGTPAPGLGRELTRTGCSQKAGPSLSPKPLLDLWRSCRLDREAVPLSSPSPSRASPWSFRSSFWGLFQVRRMEEGG [FOXN4]”, for which the median enrichment turned out to be 4.84.

“WAWTLEKEARSQPLAGQGRRPQEPSPPLLCVGTGGPWPVPGHSGQGPRDISTRSWRAVRIHSACPALAGQRQGRTFGKTKTVG [TCF15]”: the median enrichment was 5.34. The figure for “WCLGSTCLLSPQGLSLASLQWGCCVSVHLRLLCLCLLHHAGVWEEWTDRG [TCL1A]” is 4.56; for WCLHHLCSCSLKGSPYSKPPKLGDPSSP [MPIG6B] it is 6.53. Regarding WCPGVCCLAHMSLL [CLSTN2], the median enrichment is 5.25.

For WCPPKP [FAM8A1], the median enrichment was found to be 0.371. The result for WCSYLFFSSLS [LAMTOR5] reads 13.3; that for “WCWKRSKHWPLVSTLQPPQVPLWGDTGGPLAVTPCAWSDPRPLPPARFLLSPAWEDVSLSTSQRARGARGWTGQ [PPP2R1A]”, 3.49. As to WDFGSF [TSPAN31], the median enrichment was determined as 0.573.

Consider WDGR [ZNF772], for which the median enrichment was 0.288.

Turning to “WDRAGDEARPWTLHPAIETGLRRKEDPGQDPGRLATPPTPRTYSR [NUPR1]”, the median enrichment stood at 5.32.

In the case of WDREDPA [BTNL3], the median enrichment worked out at 0.401. Turning to “WDSSPSPSDQGPSSSKPEAELPAHPCRPPKPTPPHPV [ARL8A]”, the median enrichment came out at 1.02. The result for WDSSQFERQ [MYCBP] reads 0.249.
